Assay results from US20190275125A1 (H LUNDBECK A S, published 2019).

Tests used:
Assay in all cases: MSD inhibition assay, abeta 1-28 coated plates
Met-var24 = molecular target: Met-var24
Var24 = molecular target: Var24
[1] = molecular target: T1, abeta 1-12 trimer construct (UniProt P05067 672-683; P05067 672-683; P05067 672-683)
T1 construct: range 1-12
T1 sequence (peptide): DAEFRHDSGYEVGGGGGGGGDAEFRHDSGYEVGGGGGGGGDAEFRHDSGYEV

Measured: binding result

B1: Biosimilar (BS) bapineuzumab (antibody, V domains shown)
VH: EVQLVESGGGLVQPGGSLRLSCAGSGFTFSNYGMSWVRQAPGKGLEWVASIRSGGGRTYYSDNVKGRFTISRENAKNSLYLQMNSLRAEDTAVYYCVRYDHYSGSSDYWGQGTLVTVSS
VL: DVVMTQSPLSLPVTLGQPASISCKSSQSLLDSDGKTYLNWLQQRPGQSPRRLIYLVSKLDSGVPDRFSGSGSGTDFTLKISRVEAEDVGVYYCWQGTHFPRTFGGGTKVEIKR
binds: all assays above
